Key:
[1] = target: AntpΔN-hTBP pair (VC-AntpΔN with VN-TBP) as acceptor in BiFC-FRET (Drosophila | human) (UniProt P02833)
[2] = target: Antp^AAAA-hTBP pair (VC-Antp YPWM mutant with VN-TBP) as acceptor in BiFC-FRET (Drosophila | human) (UniProt P02833)
[3] = target: Antp^AAAA, Antp with the YPWM motif substituted by alanines, fused to the C-terminal fragment of Venus (Drosophila), P02833
[4] = target: Antp^I32A−H36A-hTBP pair (VC-Antp HD helix 2 mutant with VN-TBP) as acceptor in BiFC-FRET (Drosophila | human) (UniProt P20226)
Antp^I32A−H36A-hTBP pair (VC-Antp HD helix 2 mutant with VN-TBP) as acceptor in BiFC-FRET (Drosophila | human), sequence (P20226 whole entry, looked up, stated change not applied, tested part not stated): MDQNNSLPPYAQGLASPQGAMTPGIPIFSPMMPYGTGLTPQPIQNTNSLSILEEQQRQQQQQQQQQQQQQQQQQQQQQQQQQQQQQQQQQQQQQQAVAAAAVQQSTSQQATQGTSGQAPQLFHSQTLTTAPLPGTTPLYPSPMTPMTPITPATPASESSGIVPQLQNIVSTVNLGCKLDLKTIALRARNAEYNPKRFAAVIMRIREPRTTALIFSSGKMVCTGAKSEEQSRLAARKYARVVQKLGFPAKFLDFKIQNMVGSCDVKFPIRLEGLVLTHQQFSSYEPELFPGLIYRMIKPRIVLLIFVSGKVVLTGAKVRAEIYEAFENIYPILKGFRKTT

AntpΔN-hTBP pair (VC-AntpΔN with VN-TBP) as acceptor in BiFC-FRET (Drosophila | human), sequence (P02833 270-378, stated change not applied, chain 1 of 2): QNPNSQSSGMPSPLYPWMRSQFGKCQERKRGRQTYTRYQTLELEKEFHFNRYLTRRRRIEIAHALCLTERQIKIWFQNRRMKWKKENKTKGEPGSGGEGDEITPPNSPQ
AntpΔN-hTBP pair (VC-AntpΔN with VN-TBP) as acceptor in BiFC-FRET (Drosophila | human), sequence (P20226 whole entry, stated change not applied, chain 2 of 2, further chain): as the sequence (P20226 whole entry, looked up, stated change not applied, tested part not stated) above
Antp^AAAA, Antp with the YPWM motif substituted by alanines, fused to the C-terminal fragment of Venus (Drosophila), P02833, sequence (P02833 whole entry, the tested form may be a part): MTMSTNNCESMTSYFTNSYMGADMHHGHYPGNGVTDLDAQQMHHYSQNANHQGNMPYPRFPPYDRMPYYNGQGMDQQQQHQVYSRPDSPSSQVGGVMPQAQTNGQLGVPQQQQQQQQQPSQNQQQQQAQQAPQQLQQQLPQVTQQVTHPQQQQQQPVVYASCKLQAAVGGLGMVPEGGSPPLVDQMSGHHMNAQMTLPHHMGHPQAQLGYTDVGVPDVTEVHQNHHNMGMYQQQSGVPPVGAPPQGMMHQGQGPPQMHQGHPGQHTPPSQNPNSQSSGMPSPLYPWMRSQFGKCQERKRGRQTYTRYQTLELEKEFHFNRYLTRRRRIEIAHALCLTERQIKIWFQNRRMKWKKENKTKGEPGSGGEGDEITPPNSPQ
Antp^AAAA-hTBP pair (VC-Antp YPWM mutant with VN-TBP) as acceptor in BiFC-FRET (Drosophila | human), sequence (P02833 whole entry, change not shown, chain 1 of 2, the tested form may be a part): as the sequence (P02833 whole entry, the tested form may be a part) above
Antp^AAAA-hTBP pair (VC-Antp YPWM mutant with VN-TBP) as acceptor in BiFC-FRET (Drosophila | human), sequence (P20226 whole entry, change not shown, chain 2 of 2, further chain, the tested form may be a part): as the sequence (P20226 whole entry, looked up, stated change not applied, tested part not stated) above

B1: Extradenticle (Exd) (144–376) fused to ECFP (domain or fragment)
chain: DGADNAIEHSDYRAKLAQIRQIYHQELEKYEQACNEFTTHVMNLLREQSRTRPITPKEIERMVQIIHKKFSSIQMQLKQSTCEAVMILRSRFLDARRKRRNFSKQASEILNEYFYSHLSNPYPSEEAKEELARKCGITVSQVSNWFGNKRIRYKKNIGKAQEEANLYAAKKAAGASPYSMAGPPSGTTTPMMSPAPPQDSMGYPMGSGGYDQQQPYDNSMGGYDPNLHQDLSP
- transactivation on pGLH11 of AntpΔN with TBP and Exd, percent of Antp alone (Fig. 5C) [1]: 65%
- transactivation on pGLH11 of Antp^AAAA with TBP and Exd, percent of Antp alone (Fig. 5C) [2]: 70%

B2: Extradenticle (Exd) (144–376) fused to ECFP, P40427 144-376 (domain or fragment)
chain: B1 chain
- transactivation on pGLH11 of Antp^AAAA with Exd, percent of Antp alone (Fig. 5C) [3]: 97%

B3: TFIIEβ fused to ECFP (natural protein)
chain: MDPALLREREAFKKRAMATPTVEKKSKPDRPAPPPPSDDSRRKMRPPNAPRLDATTYKTMSGSSQYRFGVLAKIVKFMRTRHQDGDDHPLTIDEILDETNQLDIGQSVKNWLASEALHNNPKVEASPCGTKFSFKPVYKIKDGKTLMRLLKQHDLKGLGGILLDDVQESLPHCEKVLKNRSAEILFVVRPIDKKKILFYNDRTANFSVDDEFQKLWRSATVDAMDDAKIDEYLEKQGIRSMQDHGLKKAIPKRKKAANKKRQFKKPRDNEHLADVLEVYEDNTLTLKGVNPT
- transactivation on pGLH11 of Antp^I32A−H36A with TBP and TFIIEβ, percent of Antp alone (Fig. 5B) [4]: 72%
